Target: the molecule itself
Experiment: cross-linking; HEK293 cell homogenate supernatant (20 ug; 5 mM HEPES, 0.3 M sucrose, 10 mM DTT, pH 7.4) with glutaraldehyde (0.0025% or 260 umol/L) for 0-60 min; SDS-PAGE and Western blot with Ab^cMyc; monomer and tetramer bands by densitometry

| Protein | stoichiometry N |
| --- | --- |
| NT^WT (human RyR2 residues 1-906, cMyc-tagged) (domain or fragment, UniProt Q92736 1-906, looked up, cardiac ryanodine receptor (RyR2), human, N-terminus residues 1-906; also called wild-type RyR2 N-terminus; RyR2-NT; source: HEK293, transiently transfected, in cell homogenate (cross-linking) or CHAPS-solubilized lysate (co-IP)) MADGGEGEDEIQFLRTDDEVVLQCTATIHKEQQKLCLAAEGFGNRLCFLESTSNSKNVPPDLSICTFVLEQSLSVRALQEMLANTVEKSEGQVDVEKWKFMMKTAQGGGHRTLLYGHAILLRHSYSGMYLCCLSTSRSSTDKLAFDVGLQEDTTGEACWWTIHPASKQRSEGEKVRVGDDLILVSVSSERYLHLSYGNGSLHVDAAFQQTLWSVAPISSGSEAAQGYLIGGDVLRLLHGHMDECLTVPSGEHGEEQRRTVHYEGGAVSVHARSLWRLETLRVAWSGSHIRWGQPFRLRHVTTGKYLSLMEDKNLLLMDKEKADVKSTAFTFRSSKEKLDVGVRKEVDGMGTSEIKYGDSVCYIQHVDTGLWLTYQSVDVKSVRMGSIQRKAIMHHEGHMDDGISLSRSQHEESRTARVIRSTVFLFNRFIRGLDALSKKAKASTVDLPIESVSLSLQDLIGYFHPPDEHLEHEDKQNRLRALKNRQNLFQEEGMINLVLECIDRLHVYSSAAHFADVAGREAGESWKSILNSLYELLAALIRGNRKNCAQFSGSLDWLISRLERLEASSGILEVLHCVLVESPEALNIIKEGHIKSIISLLDKHGRNHKVLDVLCSLCVCHGVAVRSNQHLICDNLLPGRDLLLQTRLVNHVSSMRPNIFLGVSEGSAQYKKWYYELMVDHTEPFVTAEATHLRVGWASTEGYSPYPGGGEEWGGNGVGDDLFSYGFDGLHLWSGCIARTVSSPNQHLLRTDDVISCCLDLSAPSISFRINGQPVQGMFENFNIDGLFFPVVSFSAGIKVRFLLGGRHGEFKFLPPPGYAPCYEAVLPKEKLKVEHSREYKQERTYTRDLLGPTVSLTQAAFTPIPVDTSQIVLPPHLERIREKLAENIHELWVMNKIELGWQYGP | 4 |
| NT^G357S (human RyR2 residues 1-906, cMyc-tagged, G357S) (domain or fragment, UniProt Q92736 1-906, looked up, cardiac ryanodine receptor (RyR2), human, N-terminus residues 1-906 with the CPVT mutation G357S; Mutation made by site-directed mutagenesis in the NT^WT plasmid; a variant reported in patients; also called type II^intra variant; source: HEK293, transiently transfected, in cell homogenate (cross-linking) or CHAPS-solubilized lysate (co-IP)) MADGGEGEDEIQFLRTDDEVVLQCTATIHKEQQKLCLAAEGFGNRLCFLESTSNSKNVPPDLSICTFVLEQSLSVRALQEMLANTVEKSEGQVDVEKWKFMMKTAQGGGHRTLLYGHAILLRHSYSGMYLCCLSTSRSSTDKLAFDVGLQEDTTGEACWWTIHPASKQRSEGEKVRVGDDLILVSVSSERYLHLSYGNGSLHVDAAFQQTLWSVAPISSGSEAAQGYLIGGDVLRLLHGHMDECLTVPSGEHGEEQRRTVHYEGGAVSVHARSLWRLETLRVAWSGSHIRWGQPFRLRHVTTGKYLSLMEDKNLLLMDKEKADVKSTAFTFRSSKEKLDVGVRKEVDGMGTSEIKYSDSVCYIQHVDTGLWLTYQSVDVKSVRMGSIQRKAIMHHEGHMDDGISLSRSQHEESRTARVIRSTVFLFNRFIRGLDALSKKAKASTVDLPIESVSLSLQDLIGYFHPPDEHLEHEDKQNRLRALKNRQNLFQEEGMINLVLECIDRLHVYSSAAHFADVAGREAGESWKSILNSLYELLAALIRGNRKNCAQFSGSLDWLISRLERLEASSGILEVLHCVLVESPEALNIIKEGHIKSIISLLDKHGRNHKVLDVLCSLCVCHGVAVRSNQHLICDNLLPGRDLLLQTRLVNHVSSMRPNIFLGVSEGSAQYKKWYYELMVDHTEPFVTAEATHLRVGWASTEGYSPYPGGGEEWGGNGVGDDLFSYGFDGLHLWSGCIARTVSSPNQHLLRTDDVISCCLDLSAPSISFRINGQPVQGMFENFNIDGLFFPVVSFSAGIKVRFLLGGRHGEFKFLPPPGYAPCYEAVLPKEKLKVEHSREYKQERTYTRDLLGPTVSLTQAAFTPIPVDTSQIVLPPHLERIREKLAENIHELWVMNKIELGWQYGP | 4 |
| NT^R169L (human RyR2 residues 1-906, cMyc-tagged, R169L) (domain or fragment, UniProt Q92736 1-906, looked up, cardiac ryanodine receptor (RyR2), human, N-terminus residues 1-906 with the CPVT mutation R169L; Mutation made by site-directed mutagenesis in the NT^WT plasmid; a variant reported in patients; also called type I variant; source: HEK293, transiently transfected, in cell homogenate (cross-linking) or CHAPS-solubilized lysate (co-IP)) MADGGEGEDEIQFLRTDDEVVLQCTATIHKEQQKLCLAAEGFGNRLCFLESTSNSKNVPPDLSICTFVLEQSLSVRALQEMLANTVEKSEGQVDVEKWKFMMKTAQGGGHRTLLYGHAILLRHSYSGMYLCCLSTSRSSTDKLAFDVGLQEDTTGEACWWTIHPASKQLSEGEKVRVGDDLILVSVSSERYLHLSYGNGSLHVDAAFQQTLWSVAPISSGSEAAQGYLIGGDVLRLLHGHMDECLTVPSGEHGEEQRRTVHYEGGAVSVHARSLWRLETLRVAWSGSHIRWGQPFRLRHVTTGKYLSLMEDKNLLLMDKEKADVKSTAFTFRSSKEKLDVGVRKEVDGMGTSEIKYGDSVCYIQHVDTGLWLTYQSVDVKSVRMGSIQRKAIMHHEGHMDDGISLSRSQHEESRTARVIRSTVFLFNRFIRGLDALSKKAKASTVDLPIESVSLSLQDLIGYFHPPDEHLEHEDKQNRLRALKNRQNLFQEEGMINLVLECIDRLHVYSSAAHFADVAGREAGESWKSILNSLYELLAALIRGNRKNCAQFSGSLDWLISRLERLEASSGILEVLHCVLVESPEALNIIKEGHIKSIISLLDKHGRNHKVLDVLCSLCVCHGVAVRSNQHLICDNLLPGRDLLLQTRLVNHVSSMRPNIFLGVSEGSAQYKKWYYELMVDHTEPFVTAEATHLRVGWASTEGYSPYPGGGEEWGGNGVGDDLFSYGFDGLHLWSGCIARTVSSPNQHLLRTDDVISCCLDLSAPSISFRINGQPVQGMFENFNIDGLFFPVVSFSAGIKVRFLLGGRHGEFKFLPPPGYAPCYEAVLPKEKLKVEHSREYKQERTYTRDLLGPTVSLTQAAFTPIPVDTSQIVLPPHLERIREKLAENIHELWVMNKIELGWQYGP | 4 |
| NT^A77T (human RyR2 residues 1-906, cMyc-tagged, A77T) (domain or fragment, UniProt Q92736 1-906, looked up, cardiac ryanodine receptor (RyR2), human, N-terminus residues 1-906 with the patient mutation A77T; Mutation made by site-directed mutagenesis in the NT^WT plasmid; a variant reported in patients; also called type II^inter variant; source: HEK293, transiently transfected, in cell homogenate (cross-linking) or CHAPS-solubilized lysate (co-IP)) MADGGEGEDEIQFLRTDDEVVLQCTATIHKEQQKLCLAAEGFGNRLCFLESTSNSKNVPPDLSICTFVLEQSLSVRTLQEMLANTVEKSEGQVDVEKWKFMMKTAQGGGHRTLLYGHAILLRHSYSGMYLCCLSTSRSSTDKLAFDVGLQEDTTGEACWWTIHPASKQRSEGEKVRVGDDLILVSVSSERYLHLSYGNGSLHVDAAFQQTLWSVAPISSGSEAAQGYLIGGDVLRLLHGHMDECLTVPSGEHGEEQRRTVHYEGGAVSVHARSLWRLETLRVAWSGSHIRWGQPFRLRHVTTGKYLSLMEDKNLLLMDKEKADVKSTAFTFRSSKEKLDVGVRKEVDGMGTSEIKYGDSVCYIQHVDTGLWLTYQSVDVKSVRMGSIQRKAIMHHEGHMDDGISLSRSQHEESRTARVIRSTVFLFNRFIRGLDALSKKAKASTVDLPIESVSLSLQDLIGYFHPPDEHLEHEDKQNRLRALKNRQNLFQEEGMINLVLECIDRLHVYSSAAHFADVAGREAGESWKSILNSLYELLAALIRGNRKNCAQFSGSLDWLISRLERLEASSGILEVLHCVLVESPEALNIIKEGHIKSIISLLDKHGRNHKVLDVLCSLCVCHGVAVRSNQHLICDNLLPGRDLLLQTRLVNHVSSMRPNIFLGVSEGSAQYKKWYYELMVDHTEPFVTAEATHLRVGWASTEGYSPYPGGGEEWGGNGVGDDLFSYGFDGLHLWSGCIARTVSSPNQHLLRTDDVISCCLDLSAPSISFRINGQPVQGMFENFNIDGLFFPVVSFSAGIKVRFLLGGRHGEFKFLPPPGYAPCYEAVLPKEKLKVEHSREYKQERTYTRDLLGPTVSLTQAAFTPIPVDTSQIVLPPHLERIREKLAENIHELWVMNKIELGWQYGP | 4 |

— paper PMC11703740, “Disparate molecular mechanisms in cardiac ryanodine receptor channelopathies” (Frontiers in Molecular Biosciences, 2024)
